Measurements: patent US20170306033A1 (Amgen, published 2017)
Changes are numbered by the printed parent chain.

T1: human PAC1 receptor (human, UniProt P41586 21-468)
T1 sequence: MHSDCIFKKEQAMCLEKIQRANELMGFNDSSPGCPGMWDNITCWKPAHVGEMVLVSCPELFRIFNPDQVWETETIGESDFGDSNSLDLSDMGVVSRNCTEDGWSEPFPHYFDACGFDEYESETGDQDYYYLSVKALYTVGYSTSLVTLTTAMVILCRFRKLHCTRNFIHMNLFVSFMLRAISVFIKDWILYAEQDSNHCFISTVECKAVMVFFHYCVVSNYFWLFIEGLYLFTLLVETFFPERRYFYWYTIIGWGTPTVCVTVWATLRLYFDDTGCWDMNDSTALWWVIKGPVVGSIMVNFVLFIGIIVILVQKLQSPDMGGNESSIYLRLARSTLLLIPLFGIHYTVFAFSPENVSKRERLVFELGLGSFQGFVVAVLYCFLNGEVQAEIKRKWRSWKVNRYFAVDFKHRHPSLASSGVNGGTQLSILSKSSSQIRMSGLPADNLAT

B1: iPS:328000 (bispecific antibody, human IgG2, kappa, lambda)
light 1: not shown
heavy 1: QVQLQESGPGLVKPSQTLSLTCTVSGGSISSGGYYWSWIRQHPGKGLEWIGYIYYSGNTYYNPSLKSRVTISGDTSKNQFSLKLRSVTAADTAVYYCTRGGAARGMDVWGQGTTVTVSSASTKGPSVFPLAPCSRSTSESTAALGCLVKDYFPEPVTVSWNSGALTSGVHTFPAVLQSSGLYSLKSVVTVPSSNFGTQTYTCNVDHKPSNTKVDKTVERKCCVECPPCPAPPVAGPSVFLFPPKPKDTLMISRTPEVTCVVVDVSHEDPEVQFNWYVDGVEVHNAKTKPREEQFNSTFRVVSVLTVVHQDWLNGKEYKCKVSNKGLPAPIEKTISKTKGQPREPQVYTLPPSREEMTKNQVSLTCLVDGFYPSDIAVEWESNGQPENNYDTTPPMLDSDGSFFLYSDLTVDKSRWQQGNVFSCSVMHEALHNHYTQKSLSLSPGK
light 2: QSVLTQPPSVSAAPGQKVTISCSGSSSNIGNNYVSWYQQLPGTAPKLLIYDNNKRPSGIPDRFSGSKSGTSTTLGITGLQTGDEADYYCGTWDSRLSAVVFGGGTKLTVLGQPKANPTVTLFPPSSEELQANKATLVCLISDFYPGAVTVAWKADGSPVKAGVETTKPSKQSNNKYAAKSYLSLTPEQWKSHRSYSCQVTHEGSTVEKTVAPTECS
heavy 2: QVQLVESGGGVVQPGRSLRLSCAASGFTFSSFGMHWVRQAPGKGLEWVAVISFDGSIKYSVDSVKGRFTISRDNSKNTLFLQMNSLRAEDTAVYYCARDRLNYYDSSGYYHYKYYGMAVWGQGTTVTVSSASTKGPSVFPLAPCSRSTSESTAALGCLVKDYFPEPVTVSWNSGALTSGVHTFPAVLQSSGLYSLESVVTVPSSNFGTQTYTCNVDHKPSNTKVDKTVERKCCVECPPCPAPPVAGPSVFLFPPKPKDTLMISRTPEVTCVVVDVSHEDPEVQFNWYVDGVEVHNAKTKPREEQFNSTFRVVSVLTVVHQDWLNGKEYKCKVSNKGLPAPIEKTISKTKGQPREPQVYTLPPSRKKMTKNQVSLTCLVKGFYPSDIAVEWESNGQPENNYKTTPPMLKSDGSFFLYSKLTVDKSRWQQGNVFSCSVMHEALHNHYTQKSLSLSPGK
B2: iPS:327285 (bispecific antibody, human IgG1, kappa, lambda, N297G)
light 1: not shown
heavy 1: not shown
light 2: B1 light 2 with G103K
heavy 2: QVQLVESGGGVVQPGRSLRLSCAASGFTFSSFGMHWVRQAPGKELEWVAVISFDGSIKYSVDSVKGRFTISRDNSKNTLFLQMNSLRAEDTAVYYCARDRLNYYDSSGYYHYKYYGMAVWGQGTTVTVSSASTKGPSVFPLAPSSKSTSGGTAALGCLVKDYFPEPVTVSWNSGALTSGVHTFPAVLQSSGLYSLESVVTVPSSSLGTQTYICNVNHKPSNTKVDKKVEPKSCDKTHTCPPCPAPELLGGPSVFLFPPKPKDTLMISRTPEVTCVVVDVSHEDPEVKFNWYVDGVEVHNAKTKPCEEQYGSTYRCVSVLTVLHQDWLNGKEYKCKVSNKALPAPIEKTISKAKGQPREPQVYTLPPSRKEMTKNQVSLTCLVKGFYPSDIAVEWESNGQPENNYKTTPPVLKSDGSFFLYSKLTVDKSRWQQGNVFSCSVMHEALHNHYTQKSLSLSPGK
B3: iPS:327280 (bispecific antibody, human IgG1, kappa, lambda, N297G)
light 1: not shown
heavy 1: not shown
light 2: B1 light 2
heavy 2: B2 heavy 2 with E44G
B4: iPS:327286 (bispecific antibody, human IgG1, kappa, lambda, N297G)
light 1: DIQLTQSPSFLSASVGDRVTITCRASQSIGRSLHWYQQKPGKAPKLLIKYASQSLSGVPSRFSGSGSGTEFTLTISSLQPEDFATYYCHQSSRLPFTFGEGTKVDIKRTVAAPSVFIFPPSDEQLKSGTASVVCLLNNFYPREAKVQWKVDNALQSGNSQESVTEQDSKDSTYSLESTLTLSKADYEKHKVYACEVTHQGLSSPVTKSFNRGEC
heavy 1: not shown
light 2: B1 light 2 with G103K
heavy 2: B2 heavy 2
B5: iPS:327281 (bispecific antibody, human IgG1, kappa, lambda, N297G)
light 1: not shown
heavy 1: not shown
light 2: B1 light 2
heavy 2: B2 heavy 2 with E44G

target: T1, human PAC1 receptor; test: cell-based or functional assay

| Binder | % inhibition of human PAC1 |
| --- | --- |
| B1 | 63% |
| B2 | 9% |
| B3 | 83% |
| B4 | 23% |
| B5 | 50% |

target: human CGRP receptor (human, UniProt Q16602 23-461; O60894 27-148); test: cell-based or functional assay
Sequence (Q16602 23-461 limits assumed, chain 1 of 2): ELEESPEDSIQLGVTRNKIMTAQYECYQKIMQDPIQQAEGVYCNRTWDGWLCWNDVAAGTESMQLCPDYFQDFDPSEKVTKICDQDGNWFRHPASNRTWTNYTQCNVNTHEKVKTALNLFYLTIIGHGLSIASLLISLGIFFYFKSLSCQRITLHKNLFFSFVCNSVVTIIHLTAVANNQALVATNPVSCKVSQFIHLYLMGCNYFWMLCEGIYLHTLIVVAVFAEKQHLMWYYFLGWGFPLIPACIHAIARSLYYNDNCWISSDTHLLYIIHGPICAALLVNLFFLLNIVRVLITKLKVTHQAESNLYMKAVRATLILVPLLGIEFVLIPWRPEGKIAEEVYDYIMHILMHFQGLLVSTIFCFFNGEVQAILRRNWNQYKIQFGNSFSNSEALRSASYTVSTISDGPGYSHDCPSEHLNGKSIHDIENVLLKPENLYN
Sequence (O60894 27-148 limits assumed, chain 2 of 2): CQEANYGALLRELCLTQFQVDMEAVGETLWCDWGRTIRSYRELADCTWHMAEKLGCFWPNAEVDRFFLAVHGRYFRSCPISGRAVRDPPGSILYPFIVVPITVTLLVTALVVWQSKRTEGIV

| Binder | % inhibition of human CGRPR |
| --- | --- |
| B1 | 75% |
| B2 | 84% |
| B3 | 80% |
| B4 | 85% |
| B5 | 82% |
